Assay results reported in US20240117043A1 (SHANGHAI JUNSHI BIOSCIENCES, published 2024).
Values belong to the binder of their own block, whether it stands above or below them.

Tests used:
[1] = target: T1, recombinant human HX1 hCD112R Fc (human, UniProt Q6DKI7 41-171, limits assumed); assay: ELISA, plate coated with recombinant human HX1 hCD112R Fc, detection with HRP anti-human IgG4 Fc; unit taken from the concentration axis [3b]
T1 construct: Coated antigen of the ELISA (Suzhou Junmeng); also called human CD112R; not shown: Fc part
T1 sequence (looked up): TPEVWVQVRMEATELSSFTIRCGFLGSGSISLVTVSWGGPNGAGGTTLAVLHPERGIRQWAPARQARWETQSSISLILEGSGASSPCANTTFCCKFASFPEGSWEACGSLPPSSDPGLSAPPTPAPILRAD
Method: (§1) 2. Procedures [0255] a. A 96-well plate was coated with 1.0 μg/mL recombinant human HX1 hCD112R Fc (Suzhou Junmeng) as the antigen at 100 μL/well and incubated at 37° C. for 1.5 h. [0256] b. The plate was washed 4 times with 300 μL/well 1×PBST, and 2% BSA was added at 200 μL/well. The plate was blocked at 37° C. for 1.5 h. [0257] c. The plate was washed 4 times with 300 μL/well 1×PBST, and serial dilutions of the bispecific antibodies JS-1,3,5,9 and a negative control: antibody (anti-KLH hIgG4) (initial concentration 3.0 μg/mL, 3-fold serially diluted to 12 concentration points, 100 μL/well) were added. The plate was incubated at 37° C. for 1 h. [0258] d. The plate was washed 4 times with 300 μL/well 1×PBST. [0259] e. 5000-fold diluted horseradish peroxidase (HRP)-conjugated mouse anti-human IgG4 Fc antibody (Southern Biotech, 9200-05) was added at 100 μL/well, and the plate was incubated at 37° C. for 1 h. [0260] f. The plate was washed 4 times with 300 μL/well 1×PBST. [0261] g. 0.1 mg/mL TMB was added at 100 μL/well, and after the plate was incubated at 37° C. for 15 min, a 2 M solution of hydrochloric acid was added at 100 μL/well to stop the reactions. […] The absorbance was measured at 450 nm/620 nm on a microplate reader, and data were analyzed using Graphpad Prism7.

[2] = target: T2, human CD112R-mFc protein (human, UniProt Q6DKI7 41-171, limits assumed); assay: flow cytometry, blocking of 1 ug/mL CD112R-mFc binding to CHO hCD112 cells
T2 construct: also called human CD112R protein; not shown: mouse Fc (mFc)
T2 sequence (looked up): T1 sequence (looked up)
Method: CHO hCD112 cells (Chinese hamster ovary cells, human CD112 positive) were incubated with different concentrations of the bispecific antibodies JS-1, JS-3, JS-5 and JS-9 and 1 μg/mL human CD112R-mFc protein at 4° C. for 30 min, then washed twice and incubated with a fluorescence-labeled anti-mouse IgG secondary antibody (1:200) in a dark place at 4° C. for 30 min. Finally, the cells were collected using a flow cytometer (BD Canto II), and the fluorescent antibodies bound to the cell surface were detected. Raw data were analyzed using FlowJo to obtain MFI values, antibody dose-dependent binding curves (FIG. 4) were fitted using GraphPad, and IC50 was calculated. The positive controls were hu52 (a recombinant humanized anti-CD112R monoclonal antibody) and JS-Ref (Hengrui) (an anti-TIGIT/CD112R bispecific antibody of Hengrui, expressed and purified according to the sequence of the patent WO2021180205), and the negative control was an anti-KLH-hIgG1 antibody.

[3] = target: T1, recombinant human HX1 hCD112R Fc; assay: ELISA, plate coated with recombinant human HX1 hCD112R Fc, detection with HRP anti-human IgG4 Fc; unit taken from the concentration axis [3a]
Method: as §1

[4] = target: T3, recombinant human TIGIT (His Tag) (human, UniProt Q495A1 22-141); assay: ELISA, plate coated with recombinant human TIGIT (His Tag), detection with HRP anti-human IgG4 Fc; unit taken from the concentration axis [2b]
T3 construct: Coated antigen of the ELISA; not shown: His tag
T3 sequence (looked up): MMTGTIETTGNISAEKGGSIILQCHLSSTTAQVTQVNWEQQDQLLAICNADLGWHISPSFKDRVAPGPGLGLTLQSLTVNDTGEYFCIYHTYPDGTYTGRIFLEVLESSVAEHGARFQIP
Method: (§2) 2. Procedures [0241] a. A 96-well plate was coated with 1.5 μg/mL recombinant human TIGIT (His Tag) (Suzhou Junmeng) as the antigen at 100 μL/well and incubated at 37° C. for 1.5 h. [0242] b. The plate was washed 4 times with 300 μL/well 1×PBST, and 2% BSA was added at 200 μL/well. The plate was blocked at 37° C. for 1.5 h. [0243] c. The plate was washed 4 times with 300 μL/well 1×PBST, and serial dilutions of the bispecific antibodies JS-1,3,5,9 and a negative control: antibody (anti-KLH hIgG4) (initial concentration 1.0 μg/mL, 3-fold serially diluted to 12 concentration points, 100 μL/well) were added. The plate was incubated at 37° C. for 1 h. [0244] d. The plate was washed 4 times with 300 μL/well 1×PBST. [0245] e. 5000-fold diluted horseradish peroxidase (HRP)-conjugated mouse anti-human IgG4 Fc antibody (Southern Biotech, 9200-05) was added at 100 μL/well, and the plate was incubated at 37° C. for 1 h. […] The plate was washed 4 times with 300 μL/well 1×PBST. [0247] g. 0.1 mg/mL TMB was added at 100 μL/well, and after the plate was incubated at 37° C. for 15 min, a 2 M solution of hydrochloric acid was added at 100 μL/well to stop the reactions. [0248] h. The absorbance was measured at 450 nm/620 nm on a microplate reader, and data were analyzed using Graphpad Prism7.

[5] = target: T3, recombinant human TIGIT (His Tag); assay: ELISA, plate coated with recombinant human TIGIT (His Tag), detection with HRP anti-human IgG4 Fc; unit taken from the concentration axis [2a]
Method: as §2

[6] = target: T4, human TIGIT on the surface of Jurkat-hTIGIT cells (human, UniProt Q495A1 22-244); assay: flow cytometry, blocking of 1 ug/mL PVR-mFc binding to Jurkat-hTIGIT cells
T4 construct: whole, on cells; also called human TIGIT on the surface of Jurkat cells
T4 sequence (looked up): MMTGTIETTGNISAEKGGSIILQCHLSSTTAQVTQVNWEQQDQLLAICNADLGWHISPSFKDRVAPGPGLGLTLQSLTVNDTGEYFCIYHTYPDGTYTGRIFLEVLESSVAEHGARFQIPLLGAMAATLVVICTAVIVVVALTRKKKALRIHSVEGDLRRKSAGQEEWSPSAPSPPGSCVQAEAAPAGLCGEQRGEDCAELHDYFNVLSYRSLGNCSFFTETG
Method: Jurkat-hTIGIT cells (human T lymphocytes, human TIGIT positive) were incubated with different concentrations of the bispecific antibodies JS-1, JS-3, JS-5 and JS-9 and 1 μg/mL human PVR-mFc protein at 4° C. for 30 min, then washed and incubated with a fluorescence-labeled anti-mouse IgG secondary antibody (1:200) in a dark place at 4° C. for 30 min. Finally, the cells were collected using a flow cytometer (BD Canto II), and the fluorescent antibodies bound to the cell surface were detected. Raw data were analyzed using FlowJo to obtain MFI values, antibody dose-dependent binding curves (FIG. 4) were fitted using GraphPad, and IC50 was calculated. The positive controls were hu20 (a recombinant humanized anti-TIGIT monoclonal antibody) and JS-Ref (Hengrui) (an anti-TIGIT/CD112R bispecific antibody of Hengrui, expressed and purified according to the sequence of the patent WO2021180205), and the negative control was an anti-KLH-hIgG4 antibody.

EC50 [1]: 2.62 ng/mL | IC50 [2]: 0.601 nM | EC50 [3]: 2.46 ng/mL
B1: hu52 (a recombinant humanized anti-CD112R monoclonal antibody) (antibody, human IgG4 S228P, kappa, V domains shown)
VH: EVQLVESGGGLVKPGGSLRLSCAASGFTFSSYHMSWVRQAPGKGLELVSAINSNGINTYYLDTVKGRFTISRDNAKNSLYLQMNSLRAEDTAVYYCARHEDYYGFAMDYWGQGTLVTVSS
VL: DIVMTQSPDSLAVSLGERATINCKASQSVSNDVAWYQQKPGQPPKLLIYYVSHRFTGVPDRFSGSGSGTDFTLTISSLQAEDVAVYFCHQAYRSPWTFGQGTKLEIKR
notes: also called hu52 mAb; anti-CD112R antibody

EC50 [4]: 6.63 ng/mL | EC50 [5]: 20.9 ng/mL | IC50 [6]: 1.98 nM
B2: hu20 (a recombinant humanized anti-TIGIT monoclonal antibody) (antibody, V domains shown)
VH: QVQLVQSGAEVKKPGASVKVSCKTSGYAFTEYTMHWVRQAPGKGLEWMGGINPNTGGTTYNQKFQGRVTLTVDKSSSTAYMELSSLRSEDTVVYYCAKLLRLMYYFDYWGQGTLVTVSS
VL: DIQMTQSPSSLSASVGDRVTITCQASQDVRTAVAWYQQKPGKAPKLLIYSASYRYTGVPSRFSGSGSGTDFTFTISSLQPEDIATYYCHQHYITPWTFGGGTKVEIKR
notes: vector hu20-2O18HC-3; also called hu20 mAb; anti-TIGIT antibody; not shown: heavy chain constant region
